Patent publication US20040072750A1, “Compounds and methods for the modulation of CD154” (priority 2001, published 2004)
Entries after “also recorded” stand apart in the source; their conditions may differ.

How the values were obtained:
platelets [1] = test: Release of sCD154 from stimulated platelets in platelet-rich plasma (ELISA); format: cell-based, human; details: for Inhibition of sCD154 Release at >90% Platelet Aggregation Inhibition, % / Potentiation of sCD154 Release, %: TRAP-stimulated platelets, average and SD; for Inhibition of sCD154 Release at >90% Platelet Aggregation Inhibition, %: release without GP IIb-IIIa inhibitor set at 100%; for Potentiation of sCD154 Release, %: maximal potentiation, release without inhibitor set at 100%
Experimental: Platelet-rich plasma (PRP) was prepared from human donors by obtaining blood through a 19-gauge butterfly into PPACK anticoagulant (8.6 ml of 2.1 mM PPACK, Calbiochem, La Jolla, Calif.: final concentration 0.3 mM). Blood was aliquoted into 15 ml polypropylene tubes and centrifuged at 900 rpm for 20 minutes (160×g). The platelet rich plasma (PRP) was carefully removed and pooled in a new tube. Platelet counts were taken and recorded. Aliquots of PRP at 37° C. were then added to 1.5 ml microcentrifuge tubes containing various amounts of eptifibatide. To initiate aggregation, 20 μM ADP 4 μg/mL collagen or 5 μM TRAP6 was added and samples were rocked on a Nutator for 30 minutes at 37° C. The tubes were put on ice and immediately centrifuged at 15,000×g for 10 minutes at 4° C.
The platelet-poor plasma (PPP) supernatant was removed to new tubes and the levels of sCD154 in these samples were measured by ELISA. There was a time-dependent increase in sCD154 release when platelets were aggregated with either ADP or TRAP6.
(§1) In other experiments, various concentrations of eptifibatide, abciximab or tirofiban were added to PRP before the addition of TRAP. In the eptifibatide experiments, the release of βTG from platelet a granules was determined from PPP samples by ELISA. Inhibition of aggregation by GP IIb-IIIa antagonists was determined in PPACK-anticoagulated PRP by light-transmission aggregometry (Chrono-Log) as described in Phillips et al. (1995) J Exp. Med 182:33-40. To assess the effect of aspirin use on the release of sCD154 from platelets, PRP was obtained from 7 donors, incubated with a single concentration of GP IIb-IIIa inhibitor, and stimulated with 20 μmol/L ADP, 5 μmol/L TRAP or 4 μg/mL collagen for 30 minutes while rocking at 37° C. Resultant PPP was measured for sCD154. The same donors then took 325 mg of aspirin for 7 days. PRP was again collected and subjected to the same conditions, and the release of sCD154 was determined. A control reading (no addition of inhibitor) was taken with the agonist 0.5 mmol/L arachidonic acid in citrated PRP to ensure that the aspirin had been taken.

platelets [2] = test: Platelet aggregation in PRP by light-transmission aggregometry; format: cell-based, human; details: before and after 7 days of aspirin
Experimental: as §1

platelets [3] = test: Platelet function (Accumetrics RPFA) in patients undergoing PCI; format: in vivo, human; details: 10 minutes post final bolus
Experimental: (§2) Patients (n=45) undergoing PCI were enrolled. The study was approved by the IRB and all patients signed informed consent. Exclusion criteria included higher risk clinical scenarios mandating, according to institutional clinical practice, the use of GP IIb/IIIa antagonists (i.e., acute ST elevation MI or non q-wave MI with CPK elevation, pain at rest with EKG changes <24 hours, visible thrombus, pain refractory to heparin), pre-procedural GP IIb/IIIa inhibitor treatment, restenotic and graft lesions, and standard conditions excluding GP IIb/IIIa inhibitor use.
(§3) All patients received aspirin and intravenous heparin (50-70U/kg) monitored by activated clotting time (ACT) during the procedure. Patients were administered either no GP IIb/IIIa inhibitor, eptifibatide (180 μg/kg double bolus followed by 2 μg/kg/min for 16 h), or abciximab (0.25 mg/kg bolus intravenously followed by 0.125 μg/kg/min for 12 h) at the discretion of the primary operator. Platelet function was monitored using PPACK-anticoagulated blood and the Accumetrics RPFA device at baseline and 10 min post-final bolus. Interventionalists were blinded to RPFA results and not permitted to modify GP IIb-IIIa inhibitor dosing. Post-PCI, patients received clopidogrel (300 mg PO) followed by 75 mg daily.

[4] = Plasma inflammatory markers after PCI (ELISA); format: in vivo, human
Experimental: as §2, §3
Venous blood samples were collected prior to (t=0) and at 30 minutes, 2 hours, and 24 hours after the angioplasty wire was advanced across the lesion. Blood was collected into 10 mL tubes with either EDTA (for sCD 154 analysis) or PPACK (for all other analyses) anticoagulant, centrifuged at 4° C., and stored at −80° C. until analysis.
Inflammatory markers in plasma samples were quantified by commercially available ELISA for sCD154 (Alexis BioChemical) with modification (12), RANTES, IL6, sICAM-1 (BioSource), and CRP (Alpha Diagnostic International).
Primary endpoint data are presented as mean±SE. Data were log transformed to achieve a normal distribution verified by Kolmogorov-Smirnov test for normality. Statistical comparisons were performed using two-way ANOVA to determine a difference in mean values over time between the 3 groups. Pair-wise comparisons were performed when the ANOVA false-positive rate was ≦5%. A Bonferroni corrective for 3 pair-wise comparisons was applied, in which the p-value of […] was used to signify a false-positive rate of 5%. For ANOVA with a false-positive rate of ≧5%, the pair-wise comparisons were reported to be statistically nonsignificant (NS). Baseline and procedural characteristics data were analyzed with standard one way ANOVA for continuous data in more than 3 groups and a student's t-test for comparison of 2 groups. A Mann-Whitney Rank Sum test was used for nominal data. Statistical significance was assumed if the false positive rate was ≦5%.

platelets in whole blood = test: Perfusion chamber: thrombus formation of whole blood on protein-coated surface under shear; format: cell-based, human; details: with or without Fg
Experimental: The effect of CD154 on the aggregation of platelets under conditions of high shear stress were evaluated. Recombinant CD154 (rCD154 or rCD40L) was compared to fibrinogen (Fg) in its ability to form thrombi as well as in combination with Fg. Controls also included CD154 in which the KGD eptifibatide-recognition sequence was mutated to KGE (CD154(KGE) or CD40L(KGE)). Briefly, a silicone gasket with a flow path height of 127 μm was placed between a flat perfusion chamber (Glycotech, Rockville, Md.) and a protein-coated petri dish as described (Andre, P. et al., Nature Medicine, 8:247-252 (2002)). Petri dishes were coated with rCD40L, Fibrinogen (Fg), rCD40L+Fg, mutated CD40L (CD40L(KGE)), CD40L(KGE)+Fg. In one experiment, the glycoprotein IIb/IIIa antagonist eptifibatide (2 μM) was incubated with whole blood before perfusion over the rCD40L-coated surface. When Fg was coated with either rCD40L or CD40L(KGE), each molecule was deposited at 25 μg/cm^2. Coating of the proteins was performed using the spray method in which 25 μl of a 1 mg/ml protein solution is coated onto the plastic with a retouching air brush resulting in a concentration of 25 μg/cm^2 (Houdijk, WP et al., J. Clin. Invest., 75:531-540 (1985)). Human peripheral blood was collected on PPACK (40 μmol/L final concentration) and perfused for 4 minutes over the protein-coated surface. Shear rates of 1500-1600/s, 500-600/s and 100-200/s, were generated with flow rates of ˜0.6, 0.25 and 0.075 ml/min, respectively. Measurements of thrombotic deposits were performed using the Simple PCI software image analysis program (Technical Instrument, Burlingame, Calif.).

washed platelets = test: Fibrinogen binding to washed platelets and microparticle generation (flow cytometry); format: cell-based, human; details: 2 μM protein, 60 minutes at 37° C.; FIG. 10
Experimental: Venous blood was collected from normal donors into ACD buffer (85 mM Sodium Citrate, […] and 71 mM Citric acid) containing 0.05 μg/ml prostaglandin 12(PGI2). Blood was later centrifuged at 160×g for 20 minutes to collect platelet rich plasma (PRP). PRP was centrifuged at 1100×g for 10 minutes to sediment platelets. Platelets were washed twice with CGS buffer (13 mM trisodium citrate, 120 mM sodium chloride and 30 mM dextrose pH 7.0). The first wash had 0.03 μg/ml PGI2. Washed platelets were finally suspended in Tyrodes-Hepes buffer (12 mM sodium bi-carbonate, 138 mM sodium chloride, 5.5 mM glucose, 2.9 mM potassium chloride, 10 mM Hepes, 1 mM calcium chloride and 1 mM magnesium chloride, pH 7.4).
Washed platelets (1×10^7/ml) were incubated for 60 minutes at 37° C. with 2 μM soluble CD154 (sCD154) or mutant sCD154 (D117E mutation in the KGD sequence) in the presence or absence of eptifibatide or anti-CD40 antibody. All incubations had 100 nM Alexa-Fibrinogen (Molecular probes, Eugene, Oreg.). Samples were diluted 10 fold with stain buffer (BD Pharmingen, Los Angeles, Calif.) after incubation and analyzed by flow cytometry (FACSort, BD, San Jose, Calif.).

CC(=O)Oc1ccccc1C(=O)O [aspirin]
release of sCD154 from platelets stimulated with ADP or TRAP (platelets [1]; after aspirin use): unaffected; also recorded: does not block | release of CD154 from platelets activated by collagen (platelets [1]; aspirin, in words): blocks | decrease in the release of sCD154 from collagen-induced platelet aggregates (platelets [1]; donors took 325 mg aspirin for 7 days, collagen 4 μg/mL): 50% | platelet aggregation in response to optimal doses of platelet agonists (platelets [2]): no effect

CCCCS(=O)(=O)N[C@@H](Cc1ccc(OCCCCC2CCNCC2)cc1)C(=O)O [tirofiban]
Inhibition of sCD154 Release at >90% Platelet Aggregation Inhibition, % (platelets [1]): 80 ± 5.3% | Potentiation of sCD154 Release, % (platelets [1]): 19 ± 7.7%

B1: abciximab (antibody, chains of the INN, looked up, V domains shown)
VH: EVQLQQSGTVLARPGASVKMSCEASGYTFTNYWMHWVKQRPGQGLEWIGAIYPGNSDTSYIQKFKGKAKLTAVTSTTSVYMELSSLTNEDSAVYYCTLYDGYYVFAYWGQGTLVTVSA
VL: EIVLTQSPVTLSVTPGDSVSLSCRASRDISNNLHWFQQTSHESPRLLIKYASQSMSGIPSRFSGSGSGTDFTLSINSVETEDFGMYFCQQTNSWPYTFGGGTKLEIK
modifications: Fab
notes: parenteral GP IIb-IIIa antagonist
Inhibition of sCD154 Release at >90% Platelet Aggregation Inhibition, % (platelets [1]): 57 ± 8.2% | Potentiation of sCD154 Release, % (platelets [1]): 19 ± 7.5% | Platelet inhibition (% inhibition) (platelets [3]): 93±4% | CRP levels after PCI ([4]; 2-24 hours after PCI, not statistically significant): lowest levels | plasma RANTES levels after PCI ([4]; versus baseline): not observed

B2: CD40L(KGE): CD154 in which the KGD eptifibatide-recognition sequence was mutated to KGE (D117E) (protein, UniProt P29965 113-261, looked up, variant D117E)
CD40 ligand, soluble form: MQKGEQNPQIAAHVISEASSKTTSVLQWAEKGYYTMSNNLVTLENGKQLTVKRQGLYYIYAQVTFCSNREASSQAPFIASLCLKSPGRFERILLRAANTHSSAKPCGQQSIHLGGVFELQPGASVFVNVTDPSQVSHGTGFTSFGLLKL
aggregate formation on coated surface (platelets in whole blood): does not induce | fibrinogen binding to platelets and generation of microparticles (washed platelets): did not stimulate
